According to patent US20230399400A1 (I MAB BIOPHARMA, published 2023):

How the values were obtained:
[1] = target: T1, human CD47 (hCD47) expressed on the surface of cells (human, UniProt Q08722 19-323); experiment: Flow cytometry on Raji cells endogenously expressing human CD47
T1 construct: whole, on cells; also called CD47+ Raji cells; CD47 on tumor cell lines
Protocol: Raji cells, which endogenously express human CD47 on the surface, were stained with different concentrations of anti-CD47 antibodies at 4° C. for 30 minutes. Then, the cells were washed with PBS three times, followed by incubation with APC-labeled anti-human Fc specific antibody (Invitrogen) at 4° C. for 30 minutes. Binding was measured using a FACSCanto (Becton-Dickinson).

[2] = target: T2, biotinylated CD47 IgV protein (Acrobiosystems) (human, UniProt Q08722 19-139, biotinylated (site not stated)); experiment: ELISA, biotinylated CD47 protein (monomeric CD47-ECD) coated at 1 µg/mL, antibody titration
T2 construct: domain: IgV; Bought from Acrobiosystems; also called biotinylated human CD47-IgV domain; Biotinylated CD47 protein
Protocol: Biotinylated CD47 protein (Acrobiosystems) was coated at 1 μg/mL in PBS onto microtiter plates for 2 hours at RT. After coating of antigen, the wells were blocked with PBS/0.05% Tween (PBST) with 1% BSA for 1 hour at RT. After washing of the wells with PBST, different concentrations of anti-CD47 antibodies were added to the wells and incubated for 1 hour at RT. For detection of the binding of the antibodies to CD47, the HRP conjugated secondary antibodies against human Fc (Jackson Immuno Research) were added followed by the addition of fluorogenic substrates (Roche). Between all incubation steps, the wells of the plate were washed with PBST three times. Fluorescence was measured in a TECAN Spectrafluor plate reader.

[3] = target: T3, Recombinant human CD47 IgV-Fc fusion protein (Acrobiosystems) (human, UniProt Q08722 19-139); experiment: Competition ELISA: CD47-Fc coated, SIRPα-His 1 µg/mL as the blocked ligand, antibody titration
T3 construct: domain: IgV; Bought from Acrobiosystems; also called hCD47 IgV-Fc fusion protein; Recombinant CD47-Fc fusion protein
Protocol: Recombinant CD47-Fc fusion protein (Acrobiosystems) was coated at 1 μg/ml in PBS onto microtiter plates for 16 hours at 4° C. […] Plates were subsequently washed three times and incubated with an HRP-conjugated anti-His secondary antibody for 1 hour at RT. After washing, the TMB solution was added to each well for 30 min and the reaction was stopped with 2M H₂SO₄, and OD was measured at […].

EC50 [1] [nM] | EC50 [2] [nM] | EC50 [3] [nM] | Binder
0.12 | 0.09 | 0.18 | anti-CD47 antibody B2B (antibody, human IgG4 S228P, kappa, V domains shown, also called lemzoparlimab; TJ011133) VH: EVQLVESGGGLVKPGGSLRLSCAASGLTFERAWMNWVRQAPGKGLEWVGRIKRKTDGETTDYAAPVKGRFSISRDDSKNTLYLQMNSLKTEDTAVYYCAGSNRAFDIWGQGTMVTVSS VL: DIVMTQSPDSLAVSLGERATINCKSSQSVLYAGNNRNYLAWYQQKPGQPPKLLINQASTRASGVPDRFSGSGSGTEFTLIISSLQAEDVAIYYCQQYYTPPLAFGGGTKLEIKR
 | 0.25 |  | reference anti-CD47 antibody 2A1 (antibody, V domains shown) VH: EVQLQQSGAELVRSGASVKLSCTASGFNIKDYYLHWVKQRPEQGLEWIGWIDPDNGDTEFAPKFQGKATMTADTSSNTAYLQLSSLTSEDTAVYYCNAAYGSSSYPMDYWGQGTSVTV VL: DIKMTQSPSSLYASLGERVTITCKASQDIHRYLSWFQQKPGKSPKILIYRANRLVDGVPSRFSGSGSGQDYSLTISSLEYEDMGIYYCLQYDEFPYTFGGGTKLEMK
